Test results: paper PMC7855269 (FASEB journal : official publication of the Federation of …, 2020)

Molecular target: FLAG-WT CFTR (cystic fibrosis transmembrane conductance regulator) (UniProt P13569 1-1480)
Assay: pull-down

Sequence of FLAG-WT CFTR (cystic fibrosis transmembrane conductance regulator) (P13569 whole entry): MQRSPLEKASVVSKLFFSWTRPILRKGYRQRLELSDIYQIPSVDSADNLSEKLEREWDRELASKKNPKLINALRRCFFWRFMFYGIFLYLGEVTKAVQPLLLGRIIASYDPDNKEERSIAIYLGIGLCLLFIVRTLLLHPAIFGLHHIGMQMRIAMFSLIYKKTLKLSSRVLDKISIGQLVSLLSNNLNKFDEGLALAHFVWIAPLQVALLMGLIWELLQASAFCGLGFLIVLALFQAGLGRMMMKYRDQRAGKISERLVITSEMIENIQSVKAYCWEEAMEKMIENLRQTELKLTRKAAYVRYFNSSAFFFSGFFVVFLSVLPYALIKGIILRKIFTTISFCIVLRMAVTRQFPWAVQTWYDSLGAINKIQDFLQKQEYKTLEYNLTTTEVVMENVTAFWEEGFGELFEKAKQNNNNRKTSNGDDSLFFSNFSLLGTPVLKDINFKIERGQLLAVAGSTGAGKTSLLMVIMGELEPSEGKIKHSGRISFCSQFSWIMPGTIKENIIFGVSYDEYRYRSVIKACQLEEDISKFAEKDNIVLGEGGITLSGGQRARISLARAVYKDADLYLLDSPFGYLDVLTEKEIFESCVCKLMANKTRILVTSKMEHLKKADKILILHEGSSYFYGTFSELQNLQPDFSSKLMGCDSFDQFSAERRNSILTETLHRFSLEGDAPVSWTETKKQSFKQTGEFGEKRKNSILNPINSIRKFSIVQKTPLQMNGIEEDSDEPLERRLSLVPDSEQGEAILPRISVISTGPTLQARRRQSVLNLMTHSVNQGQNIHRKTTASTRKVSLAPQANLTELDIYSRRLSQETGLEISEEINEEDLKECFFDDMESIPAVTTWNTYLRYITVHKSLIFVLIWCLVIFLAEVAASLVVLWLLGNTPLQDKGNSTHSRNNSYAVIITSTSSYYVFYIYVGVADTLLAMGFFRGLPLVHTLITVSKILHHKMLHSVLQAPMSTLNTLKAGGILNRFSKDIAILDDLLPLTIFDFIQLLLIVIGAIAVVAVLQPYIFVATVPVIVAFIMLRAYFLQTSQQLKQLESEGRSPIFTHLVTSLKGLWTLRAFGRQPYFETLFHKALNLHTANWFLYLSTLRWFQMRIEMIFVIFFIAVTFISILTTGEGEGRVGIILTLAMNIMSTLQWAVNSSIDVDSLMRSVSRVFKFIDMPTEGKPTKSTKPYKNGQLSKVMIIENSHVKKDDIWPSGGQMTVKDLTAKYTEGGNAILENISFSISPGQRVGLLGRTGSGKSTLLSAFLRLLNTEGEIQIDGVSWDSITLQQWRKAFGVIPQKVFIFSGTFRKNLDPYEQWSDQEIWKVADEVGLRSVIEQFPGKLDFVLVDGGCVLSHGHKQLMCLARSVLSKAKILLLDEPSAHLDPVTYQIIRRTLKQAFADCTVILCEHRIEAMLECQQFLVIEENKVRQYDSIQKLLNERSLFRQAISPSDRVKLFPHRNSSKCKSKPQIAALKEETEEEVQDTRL

binding result: binds
B1: GST-His-S-Stx17ΔC (Stx17 1–228) (domain or fragment, UniProt P56962 1-228, looked up)
chain: MSEDEEKVKLRRLEPAIQKFIKIVIPTDLERLRKHQINIEKYQRCRIWDKLHEEHINAGRTVQQLRSNIREIEKLCLKVRKDDLVLLKRMIDPVKEEASAATAEFLQLHLESVEELKKQFNDEETLLQPPLTRSMTVGGAFHTTEAEASSQSLTQIYALPEIPQDQNAAESWETLEADLIELSQLVTDFSLLVNSQQEKIDSIADHVNSAAVNVEEGTKNLGKAAKYK
